Test results from article doi:10.1101/2022.05.03.490496.

Molecular target: amino-terminal ∼1400 amino-acid segment of human MUC2 (human)
Assay: western blot of disulfide-bonded dimers

Q: How did the stoichiometry N turn out when “amino-terminal ∼1400 amino-acid segment of human MUC2 (domain or fragment)” was run?
A: 2
